Source: the nanobody polyreactivity screen of Harvey et al. (2022)

Assay: yeast display, Sf9 membrane polyspecificity reagent, FACS + sequencing; frameworks hold sequencing errors
How it was run: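 A nanobody's polyreactivity label depends on the gate it was sorted from. Yeast display cells were stained with 10% biotinylated, detergent-solubilized Sf9 membrane reagent for 1 hour at 4 °C, enriched on streptavidin microbeads and sorted by FACS. The low and high (top ~1%) gates were set on anti-HA fluorescence for expression and streptavidin fluorescence for reagent binding.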

Sequence | polyreactivity (PSR sort gate)
QVQLVESGGGLVQAGGSLRLSCAASGLIFYDNMGWSRQAPGKERELVAAISSSGGSTSYADSVKGRFTISRDNAKNTVYVQMNSLKPVDTAVYYCAADSYPAYLGFVGFDYWGQGTQVTVSS | low polyreactivity
QVQLVESGGGLVQAGASLRLSCAASGRIFWHNAMGWYRQAPGKERELVAAMTRGGSTYYADSVKGRFTISRDNAKNTVYLQMNSLKPEDTAVYYCATLGSLRYYWPGYDYWGQGTQVTVSS | low polyreactivity
QVQLVESGGGLVQAGGSLRLSCPASGLTFWLYALGWYRQAPGKERELVAAITRSGGSTSYADSVKGRFTISRDNAKNTVYLQMNSLKPEDTAVYYCNADSPGYTAVRLVEFDYWGQGTQVTVSS | low polyreactivity
QVQLVESGGGLVQAGGSLRLSCAASGRTFFDYAMGWYRQAPGKERELVATIRGGGSTNYADSVKGRFTISRDNAKNTVYLQMNSLKPEDTAVYYCAVRRRWYFPQYRSGRSLDYWGQGTQVTVSS | high polyreactivity
QVQLVESGGGLVQAGGSLRLSCAASGIILYYYAMGRYRPAPGKERELVASISRGDSTNYADSVKGRFTISRDNAKNTVYLQMNSLIPEDTAVYCNKDYLPSLYRGFDYWGQGTQVTVSS | low polyreactivity
QVQLVESGGGLGQAGGSLRLTCAASGSTFDYYAMGWYRPAPRKERELVAAISSSGSSTYYADSVKGRFTISRDIAKNTVYLQMNSLNPEDTAVYFCAIGTNYRDDYWGQGTQVTVSS | low polyreactivity
QVQRVESGGGLVQAGGSLRLSCAASGSNFRVYVMGWYRQAPGKERELVARIRYRSGRTNYADSVKGRFTISRDNAKNTVYLQMNSLKPEDTAVYYCAARTPAYARTYGYWGQGTQVTVSS | high polyreactivity
QVQLVESGGGLVQAGGSLRLSCAASGRIFAQYAMGWYRQAPGKERELVAAISRSGGTTYYADSVKGRFTISRDNAKNTVYLQMNSLKPDDTAVYYCAASLRYLYYYWGQGTQVTVSS | high polyreactivity
QVQLVESGGGLDQAGGSLRLSCAASGSIFTGNAMGLYRQAPGKERELVAAISSSGGSTYYADSVKGRFTISRDNAKNTVYLQMNSLKPEDTAVYYCAAYKYFLQYDYWGQGTQVTVSS | low polyreactivity
QVELVESGGGLVQAGGSLRLSCAASGFTFGYNAMGWYRQAPGKERELVAAIRLSGSSTYYADSVKGRFTISRDNAKNTVYLQMNSLNPEDTAVYYCAADGISHWLYRYDYWGQGTQVTVSS | low polyreactivity
QVQLVESGGGLVQAGGSLRLSCAASGRTFDPYAMGWYRQAPGKDRELVAAISRSGGSTYYADSVKGRFTISRDNAKNTVYLQMNSLKPEDTAVYYCAADASRYYYEYDYWGQGTQVTVSS | high polyreactivity
QVQLVESGGGLVQAGGSLRLSCAASGFTFRYYAMGWYRPAPGKERELVAAISWSGGSTYYADSVKGRFTISRDNAKNTVYLQMYTLIPEDTAVYDCNAAWPGYISNRLGYDYWGQGTQVTVSS | high polyreactivity
QVQLVESGGGLVQAGGSLRLSCAASGRIFRLYAMGWYRQAPGKERELVAAISKSGGSTYYADSVKGRFTISRDTATNTVYLQMNSLKPEDTAVYYCAADYRTHGGYEGTFDYWGQGTQVTVSS | low polyreactivity
QVQLVESGGALVQAGGSLRLSCAASGRIFSRYVIRWYRQAPGKERELVAAISWNGGSTYYADSVKGRFRISRDNAKNTVYLQMNSLKPEDTAVYYCAARVRVTGTYYTKFDYWGQGTQVTVSS | high polyreactivity
QVQLVESGGGLVQAGGSLRLSCAASGFTFWAYAMGWYRQAPGKERELVAVISGSGGRTYYADSVKGRFTISRDNAKNTVYLQMNSLKPEDTAVYYCNARYPRLHRTYNYWGQGTLVTVSS | high polyreactivity
QVQLVESGGGLVQAGGSLRLSCAASGFTVRYYAMGWYRQAPGKERELVAAISWSGGSTYYADSVKGRFTISRDNAKNTVYLQMNSLKPEDTAVYYCNRETSPKVYYPNDYWGQGTQVTVSS | low polyreactivity

Sequence | polyreactivity (PSR sort gate)
QVQLVESGGGLVQAGGSLRLSCAASGFTFTAYAMGWYRQAPGKERELVAAINWSGSRTYYADSVKGRFTISRDHAKNTVYLQMNSLKPEDTAVYYCNTATSKSSYRHYDYWGQGTQVTVSS | high polyreactivity
QVQLQESGGGLVQAGGSLLSCAASGTISYYREMGWYRQAPGKERELVAGIGVGTITYYADSVKGRFTISRDNAKNTVYLQMNSLKPEDTAVYYCAALIDGNDSHAYWGQGTQVTVSS | low polyreactivity
QVQLVESGGGLVQAGGSLRLSCAASGITFEYNAMGWYRQAPGKERELVATISGGARTYYADSVKGRFTISRDNAKNTVYLQMNSLKPEETAVYYCAAKYPWYGWFDHWGQGTQVTVSS | low polyreactivity
QVQLVESGGGLVQAGGSLRLSCPASGGIFEGNAMGWYRQAPGKEMELVASITYGGGSTYYADSVKGRFTISRDNAKNTVYLQMNSLKPEDTAVYYCAADATTPGVQNGYGSWGQGTQVTVSS | low polyreactivity
KVQLVESGGGLVQAGGSLRLSCAASGRTFLRYAMGWYRQAPGKERELVAAISTSGGSTYYADSVKGRFTISRDNAKNTVYLQMNSLKPEDTAVYYCAATSTSYTYTHSYGYWGQGTQVTVSS | low polyreactivity
QVQLVESGGGLVQAGGSLRLSCAASGRIFTTYVMGWYRQAPGKEWELVAAISARGSTYYADSVKGRFTISRDNAKNTVYLQMNSLKPEDTEVYYCAAGPRLPVYYGYPRATYNDWGQGTQVTVSS | low polyreactivity
QVQLVESGGGLVQAGGSLRLSCAASGRSFGHYAMGWYRQAPGKERELVAAITTGGNTYYADSVKGRFTISRDNAKNTVYLQMNSLKPEDTAVYYCAKRGYPYKYKYWQVYAAYDYWGQGTQVTVSS | low polyreactivity
QVQLVESGGGLVQAGGSLRLSCAASGFIISNNAMGWYRQAPGKERELVAVINGGGSTYYADSVKGRFTISRDTAKNTVYLQMNSLKPEDTAVYYCNADRFADYDYWGQGTQVTVSS | low polyreactivity
QVQLVESVGGLVQAGGSLRLSCAASGRIIRWYAMGWYRQAPGKERELVAAISGSGGSTYYADSVKGRFTISRDNAKNTVYLQMNSLKPEDTAVYYGAAGYYLRRYYYWGQGTQVTVSS | high polyreactivity
QVQLVESGGGLVQAGGSLRLSCAASGRIFVGYAMGWYRQAPGKERELVATITGSGGRTYYADSVKGRFTISRDNAKNTVYLQMNSLKPEDTAVFYCATRPPLFYYDDHDDDDYWGQGTQVTVSS | low polyreactivity
QVQLVESGGGLVQAGGSLRLSCAASGSIFWINAMGWCRQAPGKEREFVADIDVSGGSTYYADSVKGRFTISRDNAKNTVYLQMNSLKPEDTAVYYCAADDYWAYLYYKTSEYYYWGQGTQVTVSS | low polyreactivity
QVQLVESGGGLVQAGGSLRLSCAASGRIFRYYAMGWYRQAPGKERELVATIDWSVGSTYYADSVKGRFTISRDNAKNTVYLQMNSLKPEDTAVYYCAKRGPQVWTFDYDSSGQGTQVTVSS | low polyreactivity
QVQLVESGGGLVQAGGSLRLSCAASGSIFTLNAMGWYRQAPGKERELVAAISRSGGSTYYADSVKGRFTISRDNAKNTVYLQMNSLKPEDTAVYYCAVYVTRDSGWWLYDYWGQGTQVTVSS | high polyreactivity
QVQLVESGGGLVQAGGSLRLSCAASGLILSDYVMGWYRQAPGKEREFVAAITSTGGSTYYADSVKGRFTISRDNAKNTVYLQMNSLKPEDTAVYYCAVRIHFPFPRRYYYWGQGTQVTVSS | high polyreactivity
QVQLVESGGGLVQAGGSLRISCAASGRTFHYYDMGWYRQAPGKERELVAAISSTAGSTYYADSVKGRFTISRDNAQNTVHLQMNSLKPEDTAVYYCAARQFGYYHVRNEYWGQGTQVTVSS | high polyreactivity
